# Measurements published in PMC5159498, “IQGAP1 Interaction with RHO Family Proteins Revisited” (The Journal of Biological Chemistry, 2016).
# Residue numbers refer to the chain shown, from its start.
# B1: CDC42 (aa 1-178) (domain or fragment)
# chain: not shown
# notes: human CDC42, C-terminally truncated, aa 1-178; Loaded non-covalently with mGppNHp, tGppNHp, mGDP or non-fluorescent GppNHp; the nucleotide is named in the format of each assay; also called CDC42^WT; CDC42-mGppNHp
# Legend:
# [1] = target: T1, IQGAP1 GRD1-RGCT wild type (aa 877-1558) (human, UniProt P46940 877-1558); assay: stopped-flow fluorometry; mGppNHp-bound RHO protein (0.2 μM) rapidly mixed with IQGAP1 variant (2 μM, or 2-12 μM for kon); koff by displacement with 10 μM non-fluorescent GppNHp-bound GTPase; Kd = koff/kon; 30 mM Tris-HCl pH 7.5, 10 mM KH2PO4/K2HPO4, 5 mM MgCl2, 3 mM DTT; settings: both partners purified
# T1 construct: human IQGAP1, GRD and RGCT domains, lacks the last 99 amino acids, aa 877-1558; also called GRD1-RGCT^WT; IQGAP1^877-1558
# T1 sequence (looked up): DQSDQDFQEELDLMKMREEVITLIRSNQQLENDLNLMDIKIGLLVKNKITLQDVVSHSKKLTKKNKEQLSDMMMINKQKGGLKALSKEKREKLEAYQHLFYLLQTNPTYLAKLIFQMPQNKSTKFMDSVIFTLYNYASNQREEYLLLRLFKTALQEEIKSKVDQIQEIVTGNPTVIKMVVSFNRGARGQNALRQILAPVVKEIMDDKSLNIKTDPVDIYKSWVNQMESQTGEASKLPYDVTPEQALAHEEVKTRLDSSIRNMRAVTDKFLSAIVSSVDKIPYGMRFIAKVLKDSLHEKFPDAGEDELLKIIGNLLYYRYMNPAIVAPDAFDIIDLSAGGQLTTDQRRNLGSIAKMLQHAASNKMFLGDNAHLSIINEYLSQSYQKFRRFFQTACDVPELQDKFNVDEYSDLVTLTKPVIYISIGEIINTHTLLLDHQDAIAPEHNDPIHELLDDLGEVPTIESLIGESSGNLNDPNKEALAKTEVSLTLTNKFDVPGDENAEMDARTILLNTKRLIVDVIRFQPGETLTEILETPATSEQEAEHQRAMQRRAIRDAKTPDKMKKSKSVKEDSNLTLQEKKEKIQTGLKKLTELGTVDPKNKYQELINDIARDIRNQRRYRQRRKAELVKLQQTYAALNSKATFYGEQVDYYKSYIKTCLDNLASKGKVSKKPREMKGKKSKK
# [2] = target: T2, IQGAP1 GRD1-RGCT S1443E (aa 877-1558) (human, UniProt P46940 877-1558, S1443E); assay: as above; settings: both partners purified
# T2 construct: human IQGAP1 aa 877-1558 with the phosphomimetic mutation S1443E (printed as S1143E in the methods, S1443E everywhere else), from the vector pET46 EkLIC; source: E. coli (pLysS BL21(DE3), CodonPlusRIL or BL21(Rosetta)), purified (Ni-NTA, gel filtration)
# T2 sequence (looked up): T1 sequence (looked up) with S567E
binder,measurement,setting,value
B1,Kd,[1],2.72 µM
same,Kd,[2],7.03 µM
